± gives the standard deviation of the averaged measurements.
test system: ATP; experiment: switch fluorescence ratio, 500 uM ATP over buffer (Cy3 cluster intensity, sum of 5 cycles each) (fold (ratio)); higher = stronger signal-on switching upon ATP binding; sequences stand for … in TCGTCGGCAGCGTCAGATGTGTATAAGAGACAGTTTTTTTTTTTTTTTTTTTTTTTTT…TC; conditions: aptamer strand: ATP DNA aptamer (quencher-CACCTGGGGGAGTATTGCGGAGGAAGG + anchor), 100 nM annealed; ATP concentration: 500 uM
Method in brief: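 Exposure to 500 uM ATP lasted 15 min at 22 °C before imaging, and a selection-buffer image was taken beforehand, for Cy3-labelled switching-strand clusters on a modified Illumina MiSeq flow-cell annealed to 100 nM quencher-labelled ATP aptamer. Five buffer/ATP cycles were run with NaOH stripping and re-annealing between them. The fluorescence ratio per cluster is summed target-cycle over summed buffer-cycle Cy3 intensity, averaged per switch-domain sequence. Clusters outside 100-1000 RFU were excluded.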

Row | Sequence | switch fluorescence ratio
1 | TAATACTGAA | 1.01 ± 0.029
2 | TAATACTTTT | 1.07 ± 0.098
3 | TAATAGAGGG | 1.03 ± 0.027
4 | TAATAGGAAG | 1.26 ± 0.43
5 | TAATAGGCTT | 1.01 ± 0.027
6 | TAATAGGGGC | 0.991 ± 0.05
7 | TAATAGGGTG | 1.08 ± 0.042
8 | TAATAGGGTT | 1.01 ± 0.027
9 | TAATAGTAGT | 0.997 ± 0.022
10 | TAATAGTATA | 1 ± 0.013
11 | TAATAGTGGC | 1.06 ± 0.068
12 | TAATAGTGGG | 1.03 ± 0.041
13 | TAATATCCTA | 1 ± 0.048
14 | TAATATGGAG | 0.99 ± 0.034
15 | TAATATTTAG | 0.9863 ± 0.0031
16 | TAATATTTT | 0.966 ± 0.035
17 | TAATCACGGG | 1.09 ± 0.017
18 | TAATCAGTAG | 1.02 ± 0.015
19 | TAATCCACGG | 1.05 ± 0.064
20 | TAATCGAAGC | 1 ± 0.048
21 | TAATCGGGCG | 1.02 ± 0.022
22 | TAATCTTTTG | 0.986 ± 0.026
23 | TAATGAAAAA | 1 ± 0.039
24 | TAATGAGGAA | 1.004 ± 0.01
25 | TAATGAGGCT | 1.03 ± 0.014

Row | Sequence | switch fluorescence ratio
26 | TAATGAGGTG | 1.04 ± 0.023
27 | TAATGAGTGC | 0.997 ± 0.04
28 | TAATGCCTGT | 0.979 ± 0.021
29 | TAATGCTAAT | 1.07 ± 0.073
30 | TAATGGTGTG | 1 ± 0.022
31 | TAATGGTTAG | 1.016 ± 0.0048
32 | TAATGTGGTT | 0.989 ± 0.033
33 | TAATGTTCTC | 1.02 ± 0.011
34 | TAATGTTGCA | 1.02 ± 0.029
35 | TAATTAACAT | 0.9883 ± 0.0092
36 | TAATTAACTT | 1.09 ± 0.12
37 | TAATTAATAC | 1.08 ± 0.017
38 | TAATTAATAT | 1 ± 0.048
39 | TAATTACTCA | 1.045 ± 0.01
40 | TAATTAGAGT | 0.967 ± 0.046
41 | TAATTAGTTT | 0.982 ± 0.015
42 | TAATTATGCC | 1.05 ± 0.04
43 | TAATTATTTT | 1.01 ± 0.03
44 | TAATTCAGGT | 1 ± 0.011
45 | TAATTCGTAC | 1.07 ± 0.078
46 | TAATTCTTAG | 0.989 ± 0.02
47 | TAATTGAAAA | 1.14 ± 0.15
48 | TAATTGCGGG | 0.9554 ± 0.0095
49 | TAATTGTTGC | 0.969 ± 0.016
50 | TAATTTAGAT | 1.028 ± 0.0095

Row | Sequence | switch fluorescence ratio
51 | TAATTTCAAG | 1.014 ± 0.0039
52 | TAATTTCTGG | 0.9896 ± 0.0085
53 | TAATTTTGTG | 0.975 ± 0.044
54 | TACAAAGGGA | 1.01 ± 0.027
55 | TACAACTCTC | 0.963 ± 0.077
56 | TACAAGGCTT | 0.993 ± 0.027
57 | TACAAGTTCT | 0.9814 ± 0.0042
58 | TACACGGTCA | 1.047 ± 0.0054
59 | TACACTTCTC | 1.08 ± 0.025
60 | TACAGAATCG | 1.014 ± 0.0014
61 | TACAGCGCGT | 1.01 ± 0.021
62 | TACAGGCGGA | 1.02 ± 0.021
63 | TACAGGGAAC | 0.974 ± 0.014
64 | TACATAGTTC | 1.032 ± 0.0018
65 | TACATTAATT | 1.02 ± 0.047
66 | TACATTGGGC | 1 ± 0.013
67 | TACCAAGTCC | 1.05 ± 0.061
68 | TACCAGCGCT | 0.993 ± 0.058
69 | TACCAGGGAT | 1.1 ± 0.14
70 | TACCATTTAG | 0.997 ± 0.025
71 | TACCCCCGTT | 1.36 ± 0.041
72 | TACCGGCTCA | 0.999 ± 0.017
73 | TACCGGGGC | 1.06 ± 0.033
74 | TACCGGGGGG | 1.03 ± 0.029
75 | TACCGGGGTA | 1.01 ± 0.03

Row | Sequence | switch fluorescence ratio
76 | TACCGGTCGG | 0.999 ± 0.019
77 | TACCGTACGA | 1.5 ± 0.019
78 | TACCGTTTGC | 1.19 ± 0.089
79 | TACCTAGGGG | 1.06 ± 0.039
80 | TACCTCTTAA | 1.05 ± 0.026
81 | TACCTTCTTG | 1.176 ± 0.0027
82 | TACGAAAAGA | 1.04 ± 0.052
83 | TACGAAGTCG | 1.0075 ± 0.00084
84 | TACGAATAAT | 1.1 ± 0.075
85 | TACGAGGGGA | 1.03 ± 0.026
86 | TACGAGGGTC | 0.969 ± 0.024
87 | TACGAGGGTG | 1.06 ± 0.034
88 | TACGATACTC | 1.62 ± 0.026
89 | TACGATGAGG | 1.05 ± 0.018
90 | TACGATTGGA | 1.034 ± 0.0011
91 | TACGATTTGG | 0.993 ± 0.0027
92 | TACGCATTTG | 1.08 ± 0.011
93 | TACGCCATAT | 1.46 ± 0.18
94 | TACGCCGGTA | 0.961 ± 0.032
95 | TACGCGATTT | 1.09 ± 0.08
96 | TACGGAGTGG | 1.06 ± 0.026
97 | TACGGATACA | 1.18 ± 0.048
98 | TACGGCGGAA | 1.02 ± 0.047
99 | TACGGCTATC | 1.16 ± 0.047
100 | TACGGGACGC | 1.12 ± 0.047

Row | Sequence | switch fluorescence ratio
101 | TACGGGACGG | 1.07 ± 0.023
102 | TACGGGATGT | 1.046 ± 0.0092
103 | TACGGGGACT | 1.11 ± 0.028
104 | TACGGGGGAG | 0.995 ± 0.02
105 | TACGGGGGGG | 1.07 ± 0.074
106 | TACGGGGTAA | 0.995 ± 0.022
107 | TACGGGGTGC | 1.07 ± 0.095
108 | TACGGGTGCT | 1.16 ± 0.16
109 | TACGGTCGAG | 1.1 ± 0.082
110 | TACGGTGTGC | 0.989 ± 0.024
111 | TACGGTTCGC | 1.02 ± 0.019
112 | TACGTAGGGT | 1.19 ± 0.28
113 | TACGTATTCC | 1.171 ± 0.011
114 | TACGTCACCT | 1.71 ± 0.048
115 | TACGTCGCTG | 0.971 ± 0.023
116 | TACGTCTTAG | 0.972 ± 0.048
117 | TACGTGTTTT | 1 ± 0.0081
118 | TACGTTGAAA | 1.17 ± 0.19
119 | TACGTTGGGG | 1 ± 0.028
120 | TACGTTTTCT | 1.02 ± 0.049
121 | TACTAATTGG | 0.9961 ± 0.0086
122 | TACTACGTGC | 1.28 ± 0.019
123 | TACTAGGCAA | 1.21 ± 0.04
124 | TACTATACGA | 1.367 ± 0.0015
125 | TACTCCATAT | 1.14 ± 0.019

Row | Sequence | switch fluorescence ratio
126 | TACTCGTGGT | 1 ± 0.064
127 | TACTCTGAAA | 2.38 ± 0.48
128 | TACTCTGGAA | 4.15 ± 0.18
129 | TACTGAGTTA | 1 ± 0.015
130 | TACTGATTCA | 1.02 ± 0.025
131 | TACTGCATAG | 1.044 ± 0.0091
132 | TACTGCGGCA | 1.04 ± 0.031
133 | TACTGGGCTT | 1.024 ± 0.0014
134 | TACTGGGGCA | 0.9842 ± 0.0028
135 | TACTGTGTAT | 1.01 ± 0.035
136 | TACTGTTCGA | 1.05 ± 0.016
137 | TACTTAAAGT | 1 ± 0.022
138 | TACTTACTCG | 1.241 ± 0.0038
139 | TACTTATCTG | 1.01 ± 0.019
140 | TACTTCTGTG | 1 ± 0.018
141 | TACTTGAGGG | 1.01 ± 0.019
142 | TACTTGGTT | 1.01 ± 0.02
143 | TACTTTGTC | 1.03 ± 0.021
144 | TACTTTGTGA | 1.1 ± 0.15
145 | TACTTTTGGA | 1.02 ± 0.04
146 | TACTTTTTAT | 1.01 ± 0.018
147 | TAGAAACCCG | 1.04 ± 0.024
148 | TAGAAAGACT | 1.07 ± 0.067
149 | TAGAAATGGG | 1.19 ± 0.33
150 | TAGAAGAAGG | 0.9842 ± 0.0031

Row | Sequence | switch fluorescence ratio
151 | TAGAAGCCCC | 1.09 ± 0.039
152 | TAGAAGCCTG | 1.03 ± 0.053
153 | TAGAAGGGGC | 0.989 ± 0.067
154 | TAGAAGTTGT | 1 ± 0.022
155 | TAGAATGGCC | 1.01 ± 0.041
156 | TAGAATGTGG | 0.994 ± 0.042
157 | TAGACCGTTC | 1.108 ± 0.0068
158 | TAGACGTAGG | 1.03 ± 0.028
159 | TAGAGAAGCC | 1.04 ± 0.025
160 | TAGAGAGCT | 1.02 ± 0.015
161 | TAGAGAGGCG | 0.9981 ± 0.0084
162 | TAGAGCTAAT | 1.09 ± 0.17
163 | TAGAGCTGTT | 0.969 ± 0.031
164 | TAGAGGCCTG | 1.04 ± 0.017
165 | TAGAGGGATG | 0.989 ± 0.015
166 | TAGAGGGGAA | 1.024 ± 0.0034
167 | TAGAGGGGG | 1.01 ± 0.014
168 | TAGAGGTAAT | 1.01 ± 0.022
169 | TAGAGGTCTT | 0.98 ± 0.016
170 | TAGAGTAGTG | 0.999 ± 0.05
171 | TAGAGTTAAG | 0.9747 ± 0.0046
172 | TAGATAAATT | 0.9965 ± 0.008
173 | TAGATATGCG | 1.03 ± 0.015
174 | TAGATATTTA | 1.01 ± 0.0087
175 | TAGATGCACA | 0.9516 ± 0.0037

Row | Sequence | switch fluorescence ratio
176 | TAGATGGGGG | 1 ± 0.011
177 | TAGATGTAAC | 0.975 ± 0.029
178 | TAGATGTTCG | 0.978 ± 0.044
179 | TAGATTGATG | 1.0281 ± 0.00078
180 | TAGATTTGTT | 1.01 ± 0.03
181 | TAGATTTTTA | 0.987 ± 0.028
182 | TAGATTTTTT | 1.02 ± 0.019
183 | TAGCAAAGAA | 1.03 ± 0.03
184 | TAGCACAGTG | 1.15 ± 0.15
185 | TAGCAGGCTA | 1 ± 0.013
186 | TAGCAGGGTC | 1.089 ± 0.0072
187 | TAGCATAACC | 1.181 ± 0.0097
188 | TAGCATGCGG | 1.01 ± 0.019
189 | TAGCATGTTC | 1.09 ± 0.049
190 | TAGCATTCTA | 1.013 ± 0.0054
191 | TAGCATTTTT | 1.07 ± 0.14
192 | TAGCCAAGTC | 1.02 ± 0.01
193 | TAGCCAGGGG | 1.2 ± 0.076
194 | TAGCCATTGG | 1.05 ± 0.081
195 | TAGCCCCCAG | 1.6 ± 0.78
196 | TAGCCCGTGG | 1.02 ± 0.027
197 | TAGCCGGGGA | 1.01 ± 0.032
198 | TAGCCGTCTA | 1.058 ± 0.0034
199 | TAGCGAATAG | 1.19 ± 0.043
200 | TAGCGCATGG | 1.08 ± 0.046

From the supplement of paper PMC10126150
